The values that follow come from patent US20150105316A1 (TREVENA, published 2015).

Common to all, as to test: cell-based or functional assay
Experiment [1] deals with T1, human angiotensin 2 type 1 receptor (human, UniProt P30556 1-359).
T1 sequence (looked up): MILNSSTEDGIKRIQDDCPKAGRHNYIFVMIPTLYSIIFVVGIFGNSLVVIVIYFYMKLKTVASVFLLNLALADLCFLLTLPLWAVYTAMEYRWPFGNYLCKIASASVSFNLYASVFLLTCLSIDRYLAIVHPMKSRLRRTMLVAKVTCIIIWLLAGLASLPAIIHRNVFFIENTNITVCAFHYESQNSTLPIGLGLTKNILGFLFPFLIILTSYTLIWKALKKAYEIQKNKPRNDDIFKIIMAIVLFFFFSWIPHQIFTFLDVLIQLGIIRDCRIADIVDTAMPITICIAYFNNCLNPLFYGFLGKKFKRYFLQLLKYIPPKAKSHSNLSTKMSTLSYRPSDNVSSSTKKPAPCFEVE

Experiment [2] addresses T2, rat angiotensin 2 type 1 receptor (rat, UniProt P25095 1-359).
T2 sequence (looked up): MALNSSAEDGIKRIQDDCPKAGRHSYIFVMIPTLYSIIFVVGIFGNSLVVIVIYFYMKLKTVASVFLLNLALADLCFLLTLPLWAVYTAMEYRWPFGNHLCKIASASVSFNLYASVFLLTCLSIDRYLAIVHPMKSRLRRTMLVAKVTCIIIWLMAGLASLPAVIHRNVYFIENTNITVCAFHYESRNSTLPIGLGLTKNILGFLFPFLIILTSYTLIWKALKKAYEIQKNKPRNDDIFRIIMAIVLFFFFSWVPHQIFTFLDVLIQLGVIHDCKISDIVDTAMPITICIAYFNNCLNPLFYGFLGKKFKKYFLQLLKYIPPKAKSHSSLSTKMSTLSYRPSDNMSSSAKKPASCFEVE

Experiment [3] deals with T1, human angiotensin 2 type 1 receptor. The source holds these as a separate data set.
For experiment [4], the target named is T2, rat angiotensin 2 type 1 receptor. The source holds these as a separate data set.

Where no end group is shown, it is not given here. [ ]: non-standard residue; d: D form. Ac6c = NC1(C(=O)O)CCCCC1; Sar = CNCC(=O)O

Consider [Sar]RVY[Ac6c]HPM [SEQ ID NO: 16 (Sar-Arg-Val-Tyr-cyHex-His-Pro-Met)], for which, in experiment [1], the “IP1 G-protein assay EC50” value was greater than 1.3 nM, the “IP1 G-protein assay Span” value was less than 103 and the “IP1 G-protein assay pEC50” value is less than 9.2. In experiment [2], the “IP1 G-protein assay EC50” value is greater than 0.6 nM, the “IP1 G-protein assay Span” value is less than 104 and the “IP1 G-protein assay pEC50” value is less than 9.2. In experiment [3], the “beta-arrestin2 assay EC50” value was greater than 3.2 nM, the “beta-arrestin2 assay Span” value is less than 101 and the “beta-arrestin2 assay pEC50” value was less than 8.5. Also, in experiment [4], the “beta-arrestin2 assay EC50” value is greater than 3.2 nM, the “beta-arrestin2 assay Span” value was less than 105 and the “beta-arrestin2 assay pEC50” value is less than 8.5.
Consider [Sar]RVY[Ac6c]HPF [SEQ ID NO: 17 (Sar-Arg-Val-Tyr-cyHex-His-Pro-Phe)], for which, in experiment [1], the “IP1 G-protein assay EC50” value is less than 1.3 nM, the “IP1 G-protein assay Span” value is less than 103 and the “IP1 G-protein assay pEC50” value was less than 9.2. In addition, in experiment [2], the “IP1 G-protein assay EC50” value is greater than 0.6 nM, the “IP1 G-protein assay Span” value is greater than 104 and the “IP1 G-protein assay pEC50” value is less than 9.2. Besides, in experiment [3], the “beta-arrestin2 assay EC50” value was greater than 3.2 nM, the “beta-arrestin2 assay Span” value was greater than 101 and the “beta-arrestin2 assay pEC50” value is less than 8.5. Moreover, in experiment [4], the “beta-arrestin2 assay EC50” value worked out at 3.2 nM, the “beta-arrestin2 assay Span” value was less than 105 and the “beta-arrestin2 assay pEC50” value came to 8.5.
Take [Sar]RVY[Ac6c]HPT [SEQ ID NO: 14 (Sar-Arg-Val-Tyr-cyHex-His-Pro-Thr)]: in experiment [1], the “IP1 G-protein assay EC50” value is greater than 1.3 nM and the “IP1 G-protein assay pEC50” value was greater than 9.2. Moreover, in experiment [2], the “IP1 G-protein assay EC50” value is greater than 0.6 nM and the “IP1 G-protein assay pEC50” value was greater than 9.2. Further, in experiment [3], the “beta-arrestin2 assay EC50” value is greater than 3.2 nM, the “beta-arrestin2 assay Span” value was less than 101 and the “beta-arrestin2 assay pEC50” value is less than 8.5. Besides, in experiment [4], the “beta-arrestin2 assay EC50” value is greater than 3.2 nM, the “beta-arrestin2 assay Span” value is less than 105 and the “beta-arrestin2 assay pEC50” value was less than 8.5.
[Sar]RVY[Ac6c]HPS [SEQ ID NO: 15 (Sar-Arg-Val-Tyr-cyHex-His-Pro-Ser)]: in experiment [1], the “IP1 G-protein assay EC50” value was greater than 1.3 nM and the “IP1 G-protein assay pEC50” value is greater than 9.2. Also, in experiment [2], the “IP1 G-protein assay EC50” value was greater than 0.6 nM, the “IP1 G-protein assay Span” value was less than 104 and the “IP1 G-protein assay pEC50” value is less than 9.2. Besides, in experiment [3], the “beta-arrestin2 assay EC50” value is greater than 3.2 nM, the “beta-arrestin2 assay Span” value is less than 101 and the “beta-arrestin2 assay pEC50” value is less than 8.5. Moreover, in experiment [4], the “beta-arrestin2 assay EC50” value was greater than 3.2 nM, the “beta-arrestin2 assay Span” value is less than 105 and the “beta-arrestin2 assay pEC50” value was less than 8.5.
With [Sar]RVY[Ac6c]HPL [SEQ ID NO: 12 (Sar-Arg-Val-Tyr-cyHex-His-Pro-Leu)], in experiment [1], the “IP1 G-protein assay EC50” value was greater than 1.3 nM, the “IP1 G-protein assay Span” value is less than 103 and the “IP1 G-protein assay pEC50” value was less than 9.2. Also, in experiment [2], the “IP1 G-protein assay EC50” value is greater than 0.6 nM, the “IP1 G-protein assay Span” value was less than 104 and the “IP1 G-protein assay pEC50” value is less than 9.2. In experiment [3], the “beta-arrestin2 assay EC50” value is greater than 3.2 nM, the “beta-arrestin2 assay Span” value was less than 101 and the “beta-arrestin2 assay pEC50” value was less than 8.5. Also, in experiment [4], the “beta-arrestin2 assay EC50” value was greater than 3.2 nM, the “beta-arrestin2 assay Span” value was less than 105 and the “beta-arrestin2 assay pEC50” value was less than 8.5.
